# Results taken from the supplement of paper PMC7125110.
# ± gives the standard error. Fewer inactive variants are shown than the library holds.
# B1: glmS ribozyme (parent)
# chain: AUAAAAGCGCCAGAACUACAGAAAUGUAGUUGACGAGGAGGAGGUUUAUCGAAUUUUCGGCGGAUGCCUCCAAA
# How the values were obtained:
# Conditions in all cases: with glucosamine-6-phosphate
# glucosamine-6-phosphate [1] = variants of: B1; assay: self-cleavage kobs at 160 uM GlcN6P; higher = faster cleavage; RNA array
# Method in brief: (§1)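 The measurements used barcoded ribozyme variants on sequenced MiSeq chips, transcribed in situ by E. coli RNA polymerase and tracked at 37 °C with a hybridised Cy3 probe. Glucosamine-6-phosphate, 40 μM to 10 mM in HEPES/KCl/Mg(OAc)2 buffer, was flowed in while tiles were imaged over ~14 h. Baseline-normalised signals, also normalised to non-cleaving reference variants, gave per-tile medians that were fit to one- or two-exponential decays for kobs. kcat and KM resulted from weighted Michaelis–Menten fits across concentrations.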
# glucosamine-6-phosphate [2] = variants of: B1; assay: self-cleavage kobs at 2500 uM GlcN6P; higher = faster cleavage; RNA array
# Method in brief: as §1
# glucosamine-6-phosphate [3] = variants of: B1; assay: self-cleavage kobs at 10000 uM GlcN6P; higher = faster cleavage; RNA array
# Method in brief: as §1
# glucosamine-6-phosphate [4] = variants of: B1; assay: self-cleavage kobs at 640 uM GlcN6P; higher = faster cleavage; RNA array
# Method in brief: as §1
Variant,self-cleavage kobs at 160 uM GlcN6P (glucosamine-6-phosphate [1]) [s⁻¹],self-cleavage kobs at 2500 uM GlcN6P (glucosamine-6-phosphate [2]) [s⁻¹],self-cleavage kobs at 10000 uM GlcN6P (glucosamine-6-phosphate [3]) [s⁻¹],self-cleavage kobs at 640 uM GlcN6P (glucosamine-6-phosphate [4]) [s⁻¹]
A14U A15G G35C,< 1e-05,< 1e-05,< 1e-05,
C16G U30A C58U G59A G60U C67G,< 1e-05,,,
G7A G32U G43C,< 1e-05,,,< 1e-05
G9U A12C G40A G41U G43U G63U,< 1e-05,,,
C11U U47A,9.6e-05 ± 3.1e-05,0.0014 ± 0.00025,0.0016 ± 0.00047,0.000187 ± 4.3e-05
C8A G35C C61G,< 1e-05,< 1e-05,,< 1e-05
G7U A12U U56G,< 1e-05,,,< 1e-05
C34U U56C G62U C71A,< 1e-05,< 1e-05,,
U30A G63A,< 1e-05,< 1e-05,< 1e-05,< 1e-05
G9U A15U A39U U69C,< 1e-05,,,< 1e-05
G7C C61U,< 1e-05,< 1e-05,,< 1e-05
A6C U49A C50U,< 1e-05,,,< 1e-05
U55G U56C,0.000157 ± 3.8e-05,0.00118 ± 0.00028,0.00614 ± 0.0016,0.000938 ± 0.00021
G32C G60U,< 1e-05,< 1e-05,< 1e-05,< 1e-05
C50A G66A C70G,5.52e-05 ± 2.4e-05,0.000169 ± 4.8e-05,,0.000243 ± 6.1e-05
G38U G59A,< 1e-05,,,
A33U A48G,< 1e-05,< 1e-05,,< 1e-05
G9U A42C,< 1e-05,< 1e-05,,
G38U G60U,< 1e-05,,,< 1e-05
G7C C58A,< 1e-05,< 1e-05,< 1e-05,< 1e-05
C8U C16U U54A C61A C71U,< 1e-05,,,< 1e-05
G9U C10U C67G,< 1e-05,< 1e-05,,< 1e-05
A36C G37C A52U A64G C70G,< 1e-05,,,< 1e-05

Variant,self-cleavage kobs at 160 uM GlcN6P (glucosamine-6-phosphate [1]) [s⁻¹],self-cleavage kobs at 2500 uM GlcN6P (glucosamine-6-phosphate [2]) [s⁻¹],self-cleavage kobs at 10000 uM GlcN6P (glucosamine-6-phosphate [3]) [s⁻¹],self-cleavage kobs at 640 uM GlcN6P (glucosamine-6-phosphate [4]) [s⁻¹]
A12G G40U A53G C67U,< 1e-05,,,< 1e-05
C16G G62C,< 1e-05,< 1e-05,,< 1e-05
A12C C34U,< 1e-05,< 1e-05,< 1e-05,
G13U A33G G40U,< 1e-05,,,
A39U A53G C71A,0.000185 ± 3.5e-05,0.00139 ± 0.00042,0.00323 ± 0.00089,
A33G G41U C50U C71U,< 1e-05,,,< 1e-05
C50U C67G,0.000148 ± 6.3e-05,2.44e-05 ± 1.1e-05,,2.88e-05 ± 1.2e-05
U56A G60U,< 1e-05,,,
A20U U56C,0.000306 ± 8.2e-05,0.0029 ± 0.00075,,
A14U A39C A52C,< 1e-05,,,< 1e-05
U54A U56C G66A C70U,7.54e-05 ± 1.5e-05,0.000395 ± 9.4e-05,,0.000185 ± 4.1e-05
U30G G43A U47G,< 1e-05,< 1e-05,,< 1e-05
A36G G38U C61U G66U,< 1e-05,,,
A14U U65C U69C,< 1e-05,,,
C11A C16U G44U A53G C71G,< 1e-05,,,< 1e-05
C10U U49G U56A,< 1e-05,,,
G7C C8G,< 1e-05,< 1e-05,< 1e-05,< 1e-05
A14C G51A C58A C68G,6.87e-05 ± 1.6e-05,8.83e-05 ± 2.5e-05,,8.48e-05 ± 2.9e-05
A12U C50G C70G,0.000311 ± 7.3e-05,0.000205 ± 7.3e-05,0.000273 ± 6e-05,0.000429 ± 8.2e-05
A15C U30G C34U G40A U55A,< 1e-05,,,
G13C G44C C61A,< 1e-05,,,
C50A U54G C67G,0.000319 ± 0.00012,0.000101 ± 4.6e-05,,0.000125 ± 4.8e-05
C16U A36U U55C U56C C58G,< 1e-05,< 1e-05,,

Variant,self-cleavage kobs at 160 uM GlcN6P (glucosamine-6-phosphate [1]) [s⁻¹],self-cleavage kobs at 2500 uM GlcN6P (glucosamine-6-phosphate [2]) [s⁻¹],self-cleavage kobs at 10000 uM GlcN6P (glucosamine-6-phosphate [3]) [s⁻¹],self-cleavage kobs at 640 uM GlcN6P (glucosamine-6-phosphate [4]) [s⁻¹]
G13U A33U U57C,< 1e-05,,,< 1e-05
G43C C50A C58U,< 1e-05,< 1e-05,,< 1e-05
G51U U56C C70G,< 1e-05,,< 1e-05,
G40C G43U G66U,< 1e-05,< 1e-05,,< 1e-05
C10U G60U C70G,< 1e-05,,,< 1e-05
U31G A52C,< 1e-05,,,< 1e-05
G13C U46C,< 1e-05,,,< 1e-05
U49C A53G,< 1e-05,,< 1e-05,< 1e-05
A12U C16A G41C,< 1e-05,,,
C10G U55A,< 1e-05,,,< 1e-05
G13U G38U U65G,< 1e-05,,,
G35U C58A C71G,< 1e-05,,,< 1e-05
C58A G60U C61U C71A,< 1e-05,< 1e-05,,
A33C G35C U45G A64C,< 1e-05,< 1e-05,,
C11A G43C C61G,< 1e-05,< 1e-05,,< 1e-05
U30G G35C A36C A52U,< 1e-05,< 1e-05,,
C11A G41U C58U,< 1e-05,,,< 1e-05
G40A G51U,< 1e-05,,,< 1e-05
G35A C70G,< 1e-05,,,< 1e-05
A39U G44C A64U,< 1e-05,,,< 1e-05
A15C G60C C61U,< 1e-05,,,
C10A G41U C68G,< 1e-05,< 1e-05,,
C11A A14C G35A C50G C71G,0.000211 ± 3.9e-05,0.000131 ± 4.3e-05,,0.000433 ± 0.00014

Variant,self-cleavage kobs at 160 uM GlcN6P (glucosamine-6-phosphate [1]) [s⁻¹],self-cleavage kobs at 2500 uM GlcN6P (glucosamine-6-phosphate [2]) [s⁻¹],self-cleavage kobs at 10000 uM GlcN6P (glucosamine-6-phosphate [3]) [s⁻¹],self-cleavage kobs at 640 uM GlcN6P (glucosamine-6-phosphate [4]) [s⁻¹]
C8U G35A U49C A64C C71A,< 1e-05,,,
U30G A36U,< 1e-05,,,< 1e-05
U30C G41C U49G G51U C58A,< 1e-05,,,
C8G G13U G43A U46G C50U,< 1e-05,,,< 1e-05
A36C G59A C71G,< 1e-05,,< 1e-05,
A15G C16U A33U A39G,< 1e-05,,,
A14G A33C C70A,< 1e-05,,,
A12U A14C G40C A42U U45G,< 1e-05,,,< 1e-05
A33G A39C,< 1e-05,< 1e-05,< 1e-05,< 1e-05
C8G G62C,< 1e-05,,3.7e-05 ± 8.1e-06,
G38U G44U C50A A64U,< 1e-05,,,
G32U C61U,< 1e-05,,,< 1e-05
G44C G62C G66A,< 1e-05,,,< 1e-05
U45G G66A,0.0029 ± 0.00042,0.0257 ± 0.0093,,0.00605 ± 0.0014
A15C C16G C67G,< 1e-05,,,
A6C A14C G44U U45C,< 1e-05,< 1e-05,,
G41A U47A G62C,< 1e-05,< 1e-05,,< 1e-05
A33C G35A G51C,< 1e-05,< 1e-05,,< 1e-05
G13C U45G U56A G63A U65C,< 1e-05,< 1e-05,,< 1e-05
U55G G63C,< 1e-05,< 1e-05,,
U30G G32U A36U G60A U69C C71A,< 1e-05,,,
G35C G40C U47A G62U,< 1e-05,,,< 1e-05
A12G C34U G41A,< 1e-05,,,< 1e-05

Variant,self-cleavage kobs at 160 uM GlcN6P (glucosamine-6-phosphate [1]) [s⁻¹],self-cleavage kobs at 2500 uM GlcN6P (glucosamine-6-phosphate [2]) [s⁻¹],self-cleavage kobs at 10000 uM GlcN6P (glucosamine-6-phosphate [3]) [s⁻¹],self-cleavage kobs at 640 uM GlcN6P (glucosamine-6-phosphate [4]) [s⁻¹]
G32U G51U G66A,< 1e-05,,,< 1e-05
A52G A64C,< 1e-05,< 1e-05,,< 1e-05
G44C G59A,< 1e-05,< 1e-05,< 1e-05,< 1e-05
G37C G60U C70U,< 1e-05,,,
A6C G40A A52G C67U,< 1e-05,< 1e-05,,< 1e-05
U30G A33U,< 1e-05,,,
A12U U30A U45A A53U G62C,< 1e-05,< 1e-05,,
C11U U46A U54G,< 1e-05,4.93e-05 ± 1.7e-05,,
G35A U56G A64G,< 1e-05,< 1e-05,< 1e-05,
A6C A39C C70U,< 1e-05,< 1e-05,,
A15C G38C C70G,< 1e-05,,,
G38U A39G G41C A42U U57C,< 1e-05,,,
A12G G51U G66A,< 1e-05,< 1e-05,,
U31C G35C G40C,< 1e-05,< 1e-05,< 1e-05,
G9A A48U,< 1e-05,< 1e-05,,< 1e-05
A12G A15G G29A G32C G37U,< 1e-05,,,
G38A A53U A64U,< 1e-05,,,
G9U C19A,< 1e-05,,,
A14C A53U C67G,3.21e-05 ± 1.4e-05,0.000238 ± 4.6e-05,,0.000135 ± 2.7e-05
C34A G44U A53C U55G,< 1e-05,,,
